*1 amine or outer side, *2 acyl side, *3 side chain or, on linkers, in order; H or OH if unused. Where a SMILES comes first, the peptide text is derived from it. [ ]: non-standard residue; d: D form. The star is where a group is joined. ξ: configuration not given here. Doxorubicin(3'-N) = COc1cccc2c1C(=O)c1c(O)c3c(c(O)c1C2=O)C[C@@](O)(C(=O)CO)C[C@@H]3O[C@H]1C[C@H](N*)[C@H](O)[C@H](C)O1; Dovitinib(4-NH) = CN1CCN(c2ccc3nc(-c4c(N*)c5c(F)cccc5[nH]c4=O)[nH]c3c2)CC1; Thyronine(3,5,3'-I3) = N[C@@H](Cc1cc(I)c(Oc2ccc(O)c(I)c2)c(I)c1)C(=O)O; Mal(CH2CH2O)6CH2CH2CO = O=C1C=CC(=O)N1CCOCCOCCOCCOCCOCCOCCC(=O)*; X9 = O=C([C@@H](Cc1cc(I)c(Oc2ccc(O)c(I)c2)c(I)c1)N[*:1])[*:2]; Hexanoyl(6-maleimido) = O=C1C=CC(=O)N1CCCCCC(=O)*; Resiquimod = CCOCc1nc2c(N*)nc3ccccc3c2n1CC(C)(C)O; Propanoyl(3-maleimido) = O=C1C=CC(=O)N1CCC(=O)*; X1 = O=C1C=CC(=O)N1CCOCCOCCOCCC(=O)*; PABC = O=C(OCc1ccc(N[*:1])cc1)[*:2]; X3 = O=C1C=CC(=O)N1CCOCCOCCC(=O)*; PEG3 = NCCOCCOCCOCCC(=O)O; ξN = NC(=O)CC(N)C(=O)O

A short description of this data set: Water solubility test (observation and HPLC). The data set is classed as physicochemical. The note with it: thermodynamic from solid. As for the experimental part: The compounds prepared in accordance with the examples of the disclosure and the reference compounds C1, C2, C3 and C4 were lyophilized (−70° C.).
As a reminder, the solubility is the dissolved amount per volume that the medium holds. Lower therefore signals little dissolved substance. Take `CCOCc1nc2c(NC(=O)OCc3ccc(NC(=O)[C@@H](CC(N)=O)NC(=O)[C@H](C)NC(=O)[C@H](C)NC(=O)CCOCCOCCN4C(=O)C=CC4=O)cc3)nc3ccccc3c2n1CC(C)(C)O` [QHL-005-Resiquimod]: the solubility was above 10000 µg/mL.
On to `CCOCc1nc2c(NC(=O)OCc3ccc(NC(=O)[C@@H](CC(N)=O)NC(=O)[C@H](C)NC(=O)[C@H](C)NC(=O)CCOCCOCCOCCN4C(=O)C=CC4=O)cc3)nc3ccccc3c2n1CC(C)(C)O` [QHL-006-Resiquimod], for which the solubility was above 10000 µg/mL.
The molecule `CCOCc1nc2c(NC(=O)OCc3ccc(NC(=O)[C@H](CC(N)=O)NC(=O)[C@H](C)NC(=O)[C@H](C)NC(=O)CCOCCOCCOCCOCCOCCOCCN4C(=O)C=CC4=O)cc3)nc3ccccc3c2n1CC(C)(C)O` [QHL-008-Resiquimod] registered a solubility above 10000 µg/mL.
In the case of `C[C@@H](NC(=O)CCOCCOCCNC(=O)CCN1C(=O)C=CC1=O)C(=O)N[C@H](C)C(=O)N[C@H](CC(N)=O)C(=O)Nc1ccc(COC(=O)Nc2c(-c3nc4ccc(N5CCN(C)CC5)cc4[nH]3)c(=O)[nH]c3cccc(F)c23)cc1` [QHL-086 - Dovitinib], the solubility is above 20000 µg/mL.
For `CCOCc1nc2c(NC(=O)OCc3ccc(NC(=O)[C@H](CC(N)=O)NC(=O)[C@H](C)NC(=O)[C@H](C)NC(=O)CCOCCOCCNC(=O)CCN4C(=O)C=CC4=O)cc3)nc3ccccc3c2n1CC(C)(C)O` [QHL-086-Resiquimod], the solubility is above 10000 µg/mL.
For the molecule `C[C@@H](NC(=O)CCOCCOCCNC(=O)CCN1C(=O)C=CC1=O)C(=O)N[C@H](C)C(=O)N[C@H](CC(N)=O)C(=O)Nc1ccc(COC(=O)Nc2nccc(-c3sc(C(C)(C)C)nc3-c3cccc(NS(=O)(=O)c4c(F)cccc4F)c3F)n2)cc1` [QHL-086-dabrafenib], the solubility is above 20000 µg/mL.
Molecule `C[C@@H](NC(=O)CCOCCOCCOCCNC(=O)CCN1C(=O)C=CC1=O)C(=O)N[C@H](C)C(=O)N[C@H](CC(N)=O)C(=O)Nc1ccc(COC(=O)Nc2c(-c3nc4ccc(N5CCN(C)CC5)cc4[nH]3)c(=O)[nH]c3cccc(F)c23)cc1` [QHL-089 - Dovitinib] gave a solubility above 20000 µg/mL.
As for `C[C@@H](NC(=O)CCOCCOCCNC(=O)CCN1C(=O)C=CC1=O)C(=O)N[C@H](C)C(=O)N[C@H](CC(N)=O)C(=O)Nc1ccc(COC(=O)N2CC(C)(C)c3ccc(NC(=O)c4cccnc4NCc4ccncc4)cc32)cc1` [QHL-089-Motesani], the solubility was above 20000 µg/mL.
Regarding `CCOCc1nc2c(NC(=O)OCc3ccc(NC(=O)[C@@H](CC(N)=O)NC(=O)[C@H](C)NC(=O)[C@H](C)NC(=O)CCOCCOCCOCCNC(=O)CCN4C(=O)C=CC4=O)cc3)nc3ccccc3c2n1CC(C)(C)O` [QHL-089-Resiquimod], the solubility is above 10000 µg/mL.
Turning to `C[C@@H](NC(=O)CCOCCOCCOCCNC(=O)CCN1C(=O)C=CC1=O)C(=O)N[C@H](C)C(=O)N[C@H](CC(N)=O)C(=O)Nc1ccc(COC(=O)Nc2nccc(-c3sc(C(C)(C)C)nc3-c3cccc(CS(=O)(=O)c4c(F)cccc4F)c3F)n2)cc1` [QHL-089-dabrafenib], the solubility is above 20000 µg/mL.
In turn, `CC(C)C[C@H](NC(=O)[C@H](CC(N)=O)NC(=O)[C@H](C)NC(=O)[C@H](C)NC(=O)CCOCCOCCOCCNC(=O)CCN1C(=O)C=CC1=O)C(=O)Nc1c(-c2nc3ccc(N4CCN(C)CC4)cc3[nH]2)c(=O)[nH]c2cccc(F)c12` [QHL-090 - Dovitinib] ({Propanoyl(3-maleimido)-PEG3}-AANL-{Dovitinib(4-NH)}) returned a solubility above 10000 µg/mL.
The result for `CCOCc1nc2c(NC(=O)OCc3ccc(NC(=O)C(CC(N)=O)NC(=O)[C@H](C)NC(=O)[C@H](C)NC(=O)CCOCCOCCOCCOCCNC(=O)CCN4C(=O)C=CC4=O)cc3)nc3ccccc3c2n1CC(C)(C)O` (stereo partly shown) [QHL-092-Resiquimod] reads above 10000 µg/mL; that for `CCOCc1nc2c(NC(=O)OCc3ccc(NC(=O)[C@H](CC(N)=O)NC(=O)[C@H](C)NC(=O)[C@H](C)NC(=O)CCOCCOCCOCCOCCOCCOCCNC(=O)CCN4C(=O)C=CC4=O)cc3)nc3ccccc3c2n1CC(C)(C)O` [QHL-095-Resiquimod], above 10000 µg/mL.
To `CCOCc1nc2c(NC(=O)OCc3ccc(NC(=O)[C@H](CC(N)=O)NC(=O)[C@H](C)NC(=O)[C@H](C)NC(=O)[C@H](CCC(=O)O)NC(=O)CCCCCN4C(=O)C=CC4=O)cc3)nc3ccccc3c2n1CC(C)(C)O` [QHL-116-Resiquimod] ({Hexanoyl(6-maleimido)}-EAAN[PABC]-Resiquimod) belongs above 10000 µg/mL.
On to `COc1cccc2c1C(=O)c1c(O)c3c(c(O)c1C2=O)C[C@@](O)(C(=O)CO)C[C@@H]3O[C@H]1C[C@H](NC(=O)[C@H](CC(C)C)NC(=O)[C@H](CC(N)=O)NC(=O)[C@H](C)NC(=O)[C@H](C)NC(=O)[C@@H](NC(=O)CCCCCN2C(=O)C=CC2=O)C(C)C)[C@H](O)[C@H](C)O1` [QHL-123-DOX] ({Hexanoyl(6-maleimido)}-VAANL-{Doxorubicin(3'-N)}), for which the solubility was above 2000 µg/mL.
To `CCOCc1nc2c(NC(=O)OCc3ccc(NC(=O)[C@H](CC(N)=O)NC(=O)[C@H](C)NC(=O)[C@H](C)NC(=O)CCCCCN4C(=O)C=CC4=O)cc3)nc3ccccc3c2n1CC(C)(C)O` [QHL-140-Resiquimod] belongs above 10000 µg/mL; to `CCOCc1nc2c(NC(=O)OCc3ccc(NC(=O)[C@H](CC(N)=O)NC(=O)[C@H](C)NC(=O)[C@H](C)NC(=O)CCOCCOCCOCCOCCOCCOCCOCCOCCOCCOCCOCCOCCN4C(=O)C=CC4=O)cc3)nc3ccccc3c2n1CC(C)(C)O` [QHL-147-Resiquimod], above 10000 µg/mL.
`C[C@H](NC(=O)CCOCCOCCN1C(=O)C=CC1=O)C(=O)N[C@@H](C)C(=O)N[C@H](CC(N)=O)C(=O)N[C@@H](Cc1cc(I)c(Oc2ccc(O)c(I)c2)c(I)c1)C(=O)O` [QHL-153-T3] (X3-AA[dN][Thyronine(3,5,3'-I3)]-OH) came in with a solubility above 10000 µg/mL.
In the case of `C[C@H](NC(=O)CCOCCOCCOCCN1C(=O)C=CC1=O)C(=O)N[C@@H](C)C(=O)N[C@H](CC(N)=O)C(=O)N[C@@H](Cc1cc(I)c(Oc2ccc(O)c(I)c2)c(I)c1)C(=O)O` [QHL-154-T3] (X1-AA[dN][Thyronine(3,5,3'-I3)]-OH), the solubility is above 10000 µg/mL.
Molecule `C[C@H](NC(=O)CCOCCOCCOCCOCCOCCOCCN1C(=O)C=CC1=O)C(=O)N[C@@H](C)C(=O)N[C@H](CC(N)=O)C(=O)N[C@@H](Cc1cc(I)c(Oc2ccc(O)c(I)c2)c(I)c1)C(=O)O` [QHL-155-T3] ({Mal(CH2CH2O)6CH2CH2CO}-AA[dN][Thyronine(3,5,3'-I3)]-OH) yielded a solubility above 10000 µg/mL.
`C[C@H](NC(=O)[C@H](C)NC(=O)[C@@H](CCC(=O)O)NC(=O)CCCCCN1C(=O)C=CC1=O)C(=O)N[C@@H](CC(N)=O)C(=O)N[C@H](Cc1cc(I)c(Oc2ccc(O)c(I)c2)c(I)c1)C(=O)O` [QHL-161-T3] ({Hexanoyl(6-maleimido)}-[dE]AAN[X9]-OH) registered a solubility above 10000 µg/mL.
To `C[C@H](NC(=O)[C@H](C)NC(=O)[C@@H](CC(=O)O)NC(=O)CCCCCN1C(=O)C=CC1=O)C(=O)NC(CC(N)=O)C(=O)N[C@H](Cc1cc(I)c(Oc2ccc(O)c(I)c2)c(I)c1)C(=O)O` (stereo partly shown) [QHL-162-T3] ({Hexanoyl(6-maleimido)}-[dD]AA[ξN][X9]-OH) belongs above 10000 µg/mL.

These data come from patent publication US20230414771A1, “PREPARATION AND USE OF IMMUNOSTIMULATORY CONJUGATED COMPLEXES FOR TARGETED DELIVERY AND ACTIVATION” (YAFEI SHANGHAI BIOLOGY MEDICINE SCIENCE & TECHNOLOGY CO., …, priority 2020, published 2023).
